# Experimental data from US20230250154A1 (CYTONICS, published 2023).
# T1: ADAMTS4 (human, UniProt O75173 213-685, limits assumed)
# T1 sequence (looked up): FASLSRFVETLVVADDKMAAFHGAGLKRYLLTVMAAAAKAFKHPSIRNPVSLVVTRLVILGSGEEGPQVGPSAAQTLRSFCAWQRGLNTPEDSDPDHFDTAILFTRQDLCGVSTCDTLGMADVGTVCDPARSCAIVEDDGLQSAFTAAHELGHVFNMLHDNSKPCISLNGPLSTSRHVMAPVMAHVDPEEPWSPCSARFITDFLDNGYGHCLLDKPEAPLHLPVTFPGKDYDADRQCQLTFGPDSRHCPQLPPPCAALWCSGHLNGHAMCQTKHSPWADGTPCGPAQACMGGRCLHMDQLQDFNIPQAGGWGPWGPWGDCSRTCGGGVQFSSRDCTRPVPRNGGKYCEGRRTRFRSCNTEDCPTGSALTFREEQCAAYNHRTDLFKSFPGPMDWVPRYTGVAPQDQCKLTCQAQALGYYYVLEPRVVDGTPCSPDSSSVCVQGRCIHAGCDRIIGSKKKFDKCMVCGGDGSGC
# T2: ADAMTS5 (human, UniProt Q9UNA0 262-622, limits assumed)
# T2 sequence (looked up): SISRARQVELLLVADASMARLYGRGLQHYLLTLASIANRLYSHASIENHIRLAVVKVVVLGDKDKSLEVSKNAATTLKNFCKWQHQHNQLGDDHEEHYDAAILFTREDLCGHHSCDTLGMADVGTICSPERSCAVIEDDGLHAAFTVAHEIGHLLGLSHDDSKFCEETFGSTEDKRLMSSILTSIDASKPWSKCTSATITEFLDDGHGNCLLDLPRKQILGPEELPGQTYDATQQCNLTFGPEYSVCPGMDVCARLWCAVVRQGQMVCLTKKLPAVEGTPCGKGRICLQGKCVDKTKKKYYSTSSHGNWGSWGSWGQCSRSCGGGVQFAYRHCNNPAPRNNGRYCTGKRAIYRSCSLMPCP
# Tests used:
# Test in all cases: cell-based or functional assay
# ADAMTS4 = target: T1, ADAMTS4
# ADAMTS5 = target: T2, ADAMTS5
# MMP13 = MMP13 (human, UniProt P45452 104-471, limits assumed)
Protease Inhibition (% of WT) (ADAMTS4),Protease Inhibition (% of WT) (ADAMTS5),Protease Inhibition (% of WT) (MMP13),Binder
63 % of WT,87 % of WT,64 % of WT,"Variant A2M, bait region SEQ ID NO 99 (other) SVSGKPQYMVLVPSLLHTETTEKGCVLLSYLNETVTVSASLESVRGNRSLFTDLEAENDVLHCVAFAVPKSSSNEEVMFLTVQVKGPTQEFKKRTTVMVKNEDSLVFVQTDKSIYKPGQTVKFRVVSMDENFHPLNELIPLVYIQDPKGNRIAQWQSFQLEGGLKQFSFPLSSEPFQGSYKVVVQKKSGGRTEHPFTVEEFVLPKFEVQVTVPKIITILEEEMNVSVCGLYTYGKPVPGHVTVSICRKYSDASDCHGEDSQAFCEKFSGQLNSHGCFYQQVKTKVFQLKRKEYEMKLHTEAQIQEEGTVVELTGRQSSEITRTITKLSFVKVDSHFRQGIPFFGQVRLVDGKGVPIPNKVIFIRGNEANYYSNATTDEHGLVQFSINTTNVMGTSLTVRVNYKDRSPCYGYQWVSEEHEEAHHTAYLVFSPSKSFVHLEPMSHELPCGHTQTVQAHYILNGGTLLGLKKLSFYYLIMAKGGIVRTGTHGLLVKQEDMKGHFSISIPVKSDIAPVARLLIYAVLPTGDVIGDSAKYDVENCLANKVDLSFSPSQSLPASHAHLRVTAAPQSVCALRAVDQSVLLMKPDAELSASSVYNLLPEKDLTGFPGPLNDQDDEDCINRHNVYINGITYTPVSSTNEKDMYSFLEDMGLKAFTNSKIRKPKMCPQLEQYEMHGPEGLRVGGPPGLAPGFYESDVMGRGHARLVHVEEPHTKLLRKYFPETWIWDLVVVNSAGVAEVGVTVPDTITEWKAGAFCLSEDAGLGISSTASLRAFQPFFVELTMPYSVIRGEAFTLKATVLNYLPKCIRVSVQLEASPAFLAVPVEKEQAPHCICANGRQTVSWAVTPKSLGNVNFTVSAEALESQELCGTEVPSVPEHGRKDTVIKPLLVEPEGLEKETTFNSLLCPSGGEVSEELSLKLPPNVVEESARASVSVLGDILGSAMQNTQNLLQMPYGCGEQNMVLFAPNIYVLDYLNETQQLTPEIKSKAIGYLNTGYQRQLNYKHYDGSYSTFGERYGRNQGNTWLTAFVLKTFAQARAYIFIDEAHITQALIWLSQRQKDNGCFRSSGSLLNNAIKGGVEDEVTLSAYITIALLEIPLTVTHPVVRNALFCLESAWKTAQEGDHGSHVYTKALLAYAFALAGNQDKRKEVLKSLNEEAVKKDNSVHWERPQKPKAPVGHFYEPQAPSAEVEMTSYVLLAYLTAQPAPTSEDLTSATNIVKWITKQQNAQGGFSSTQDTVVALHALSKYGAATFTRTGKAAQVTIQSSGTFSSKFQVDNNNRLLLQQVSLPELPGEYSMKVTGEGCVYLQTSLKYNILPEKEEFPFALGVQTLPQTCDEPKAHTSFQISLSVSYTGSRSASNMAIVDVKMVSGFIPLKPTVKMLERSNHVSRTEVSSNHVLIYLDKVSNQTLSLFFTVLQDVPVRDLKPAIVKVYDYYETDEFAIAEYNAPCSKDLGNADYKDDDDKGASHHHHHH"
168 % of WT,97 % of WT,124 % of WT,"Variant A2M, bait region SEQ ID NO 101 (other) SVSGKPQYMVLVPSLLHTETTEKGCVLLSYLNETVTVSASLESVRGNRSLFTDLEAENDVLHCVAFAVPKSSSNEEVMFLTVQVKGPTQEFKKRTTVMVKNEDSLVFVQTDKSIYKPGQTVKFRVVSMDENFHPLNELIPLVYIQDPKGNRIAQWQSFQLEGGLKQFSFPLSSEPFQGSYKVVVQKKSGGRTEHPFTVEEFVLPKFEVQVTVPKIITILEEEMNVSVCGLYTYGKPVPGHVTVSICRKYSDASDCHGEDSQAFCEKFSGQLNSHGCFYQQVKTKVFQLKRKEYEMKLHTEAQIQEEGTVVELTGRQSSEITRTITKLSFVKVDSHFRQGIPFFGQVRLVDGKGVPIPNKVIFIRGNEANYYSNATTDEHGLVQFSINTTNVMGTSLTVRVNYKDRSPCYGYQWVSEEHEEAHHTAYLVFSPSKSFVHLEPMSHELPCGHTQTVQAHYILNGGTLLGLKKLSFYYLIMAKGGIVRTGTHGLLVKQEDMKGHFSISIPVKSDIAPVARLLIYAVLPTGDVIGDSAKYDVENCLANKVDLSFSPSQSLPASHAHLRVTAAPQSVCALRAVDQSVLLMKPDAELSASSVYNLLPEKDLTGFPGPLNDQDDEDCINRHNVYINGITYTPVSSTNEKDMYSFLEDMGLKAFTNSKIRKPKMCPQLEQYEMHGPEGLRVGEEEGGGFYESDVMGRGHARLVHVEEPHTKLRKYFPETWIWDLVVVNSAGVAEVGVTVPDTITEWKAGAFCLSEDAGLGISSTASLRAFQPFFVELTMPYSVIRGEAFTLKATVLNYLPKCIRVSVQLEASPAFLAVPVEKEQAPHCICANGRQTVSWAVTPKSLGNVNFTVSAEALESQELCGTEVPSVPEHGRKDTVIKPLLVEPEGLEKETTFNSLLCPSGGEVSEELSLKLPPNVVEESARASVSVLGDILGSAMQNTQNLLQMPYGCGEQNMVLFAPNIYVLDYLNETQQLTPEIKSKAIGYLNTGYQRQLNYKHYDGSYSTFGERYGRNQGNTWLTAFVLKTFAQARAYIFIDEAHITQALIWLSQRQKDNGCFRSSGSLLNNAIKGGVEDEVTLSAYITIALLEIPLTVTHPVVRNALFCLESAWKTAQEGDHGSHVYTKALLAYAFALAGNQDKRKEVLKSLNEEAVKKDNSVHWERPQKPKAPVGHFYEPQAPSAEVEMTSYVLLAYLTAQPAPTSEDLTSATNIVKWITKQQNAQGGFSSTQDTVVALHALSKYGAATFTRTGKAAQVTIQSSGTFSSKFQVDNNNRLLLQQVSLPELPGEYSMKVTGEGCVYLQTSLKYNILPEKEEFPFALGVQTLPQTCDEPKAHTSFQISLSVSYTGSRSASNMAIVDVKMVSGFIPLKPTVKMLERSNHVSRTEVSSNHVLIYLDKVSNQTLSLFFTVLQDVPVRDLKPAIVKVYDYYETDEFAIAEYNAPCSKDLGNADYKDDDDKGASHHHHHH"
187 % of WT,354 % of WT,127 % of WT,"Variant A2M, bait region SEQ ID NO 102 (other) SVSGKPQYMVLVPSLLHTETTEKGCVLLSYLNETVTVSASLESVRGNRSLFTDLEAENDVLHCVAFAVPKSSSNEEVMFLTVQVKGPTQEFKKRTTVMVKNEDSLVFVQTDKSIYKPGQTVKFRVVSMDENFHPLNELIPLVYIQDPKGNRIAQWQSFQLEGGLKQFSFPLSSEPFQGSYKVVVQKKSGGRTEHPFTVEEFVLPKFEVQVTVPKIITILEEEMNVSVCGLYTYGKPVPGHVTVSICRKYSDASDCHGEDSQAFCEKFSGQLNSHGCFYQQVKTKVFQLKRKEYEMKLHTEAQIQEEGTVVELTGRQSSEITRTITKLSFVKVDSHFRQGIPFFGQVRLVDGKGVPIPNKVIFIRGNEANYYSNATTDEHGLVQFSINTTNVMGTSLTVRVNYKDRSPCYGYQWVSEEHEEAHHTAYLVFSPSKSFVHLEPMSHELPCGHTQTVQAHYILNGGTLLGLKKLSFYYLIMAKGGIVRTGTHGLLVKQEDMKGHFSISIPVKSDIAPVARLLIYAVLPTGDVIGDSAKYDVENCLANKVDLSFSPSQSLPASHAHLRVTAAPQSVCALRAVDQSVLLMKPDAELSASSVYNLLPEKDLTGFPGPLNDQDDEDCINRHNVYINGITYTPVSSTNEKDMYSFLEDMGLKAFTNSKIRKPKMCPQLEQYEMHGPEGLRVGGYPGSSRGFYESDVMGRGHARLVHVEEPHTKLLRKYFPETWIWDLVVVNSAGVAEVGVTVPDTITEWKAGAFCLSEDAGLGISSTASLRAFQPFFVELTMPYSVIRGEAFTLKATVLNYLPKCIRVSVQLEASPAFLAVPVEKEQAPHCICANGRQTVSWAVTPKSLGNVNFTVSAEALESQELCGTEVPSVPEHGRKDTVIKPLLVEPEGLEKETTFNSLLCPSGGEVSEELSLKLPPNVVEESARASVSVLGDILGSAMQNTQNLLQMPYGCGEQNMVLFAPNIYVLDYLNETQQLTPEIKSKAIGYLNTGYQRQLNYKHYDGSYSTFGERYGRNQGNTWLTAFVLKTFAQARAYIFIDEAHITQALIWLSQRQKDNGCFRSSGSLLNNAIKGGVEDEVTLSAYITIALLEIPLTVTHPVVRNALFCLESAWKTAQEGDHGSHVYTKALLAYAFALAGNQDKRKEVLKSLNEEAVKKDNSVHWERPQKPKAPVGHFYEPQAPSAEVEMTSYVLLAYLTAQPAPTSEDLTSATNIVKWITKQQNAQGGFSSTQDTVVALHALSKYGAATFTRTGKAAQVTIQSSGTFSSKFQVDNNNRLLLQQVSLPELPGEYSMKVTGEGCVYLQTSLKYNILPEKEEFPFALGVQTLPQTCDEPKAHTSFQISLSVSYTGSRSASNMAIVDVKMVSGFIPLKPTVKMLERSNHVSRTEVSSNHVLIYLDKVSNQTLSLFFTVLQDVPVRDLKPAIVKVYDYYETDEFAIAEYNAPCSKDLGNADYKDDDDKGASHHHHHH"
